Data as given in patent US20050147614A1 (CANCER RESEARCH TECHNOLOGY, published 2005).

How the values were obtained:
[1] = biological target: T1, carcinoembryonic antigen (CEA) (UniProt P06731 35-685, limits assumed, biotinylated (labelled form); unlabelled CEA (Calbiochem) used as competitor in the off-rate assays); test: yeast surface display, equilibrium titration with biotinylated CEA, flow cytometry
T1 construct: also called biotinylated-CEA; bio-CEA
T1 sequence (looked up): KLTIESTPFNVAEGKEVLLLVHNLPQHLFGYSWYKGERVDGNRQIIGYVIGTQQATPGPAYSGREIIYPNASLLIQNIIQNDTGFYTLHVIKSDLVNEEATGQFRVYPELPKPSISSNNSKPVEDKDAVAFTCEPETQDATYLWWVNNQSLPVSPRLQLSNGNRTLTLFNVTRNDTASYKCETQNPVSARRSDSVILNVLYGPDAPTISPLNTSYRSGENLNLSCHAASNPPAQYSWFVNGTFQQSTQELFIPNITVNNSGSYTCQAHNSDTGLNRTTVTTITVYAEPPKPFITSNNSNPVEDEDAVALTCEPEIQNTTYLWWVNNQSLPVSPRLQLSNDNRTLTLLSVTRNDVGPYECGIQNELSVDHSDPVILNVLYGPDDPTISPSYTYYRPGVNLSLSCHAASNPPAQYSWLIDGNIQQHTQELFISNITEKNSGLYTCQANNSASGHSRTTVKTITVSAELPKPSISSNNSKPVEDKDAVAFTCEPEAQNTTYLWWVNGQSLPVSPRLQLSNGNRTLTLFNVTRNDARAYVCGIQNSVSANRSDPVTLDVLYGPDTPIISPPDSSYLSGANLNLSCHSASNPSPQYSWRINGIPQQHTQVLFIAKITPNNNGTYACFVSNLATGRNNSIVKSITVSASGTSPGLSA

[2] = biological target: T1, carcinoembryonic antigen (CEA); test: yeast surface display, off-rate analysis with biotinylated CEA and excess unlabelled CEA, flow cytometry

Kd [1]: 0.03 nM | koff [2]: 1.2e-06 s⁻¹
B1: sm3E (scFv)
scFv: PYDVPDYALQASGGGGSGGGGSGGGGSASQVKLEQSGAEVVKPGASVKLSCKASGFNIKDSYMHWLRQGPGQRLEWIGWIDPENGDTEYAPKFQGKATFTTDTSANTAYLGLSSLRPEDTAVYYCNEGTPTGPYYFDYWGQGTLVTVSSGGGGSGGGGSGGGGSENVLTQSPSSMSVSVGDRVTIACSASSSVPYMHWLQQKPGKSPKLLIYLTSNLASGVPSRFSGSGSGTDYSLTISSVQPEDAATYYCQQRSSYPLTFGGGTKLEIKAAAGSEQKLISEEDL
notes: also called stabilized m3E
